Measurements: the supplement of paper PMC10567573

B1: MLL5 (parent)
chain: EQIAERKRKMVSWEASSLGLVTAA
B2: CDS2 (parent)
chain: IHSIALSTFASLIGPFGGFFASGF

Variants of: B1
Assay: protein stability index of a GFP-peptide fusion (GPS, HEK-293T) (PSI 1-6); higher = more stable
Conditions: c terminus: a fixed tail appended
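Note: lentivirally expressed fusions sorted by FACS into six bins by GFP to DsRed ratio, PSI derived from sequencing read proportions per bin multiplied by bin number.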

Protein stability index: each site, then its substitutions
K9: G 3.73; M 2.38; S 3.51; Y 2.97; C 1.53; T 2.31; A 2.52; V 2.46; Q 2.59; W 1.88; I 2.34; F 2.06; R 3.06; H 1.76; L 2.27; E 3.52; N 3.84
E5: Q 2.79; H 2.12; D 3.49; C 1.87; S 2.13; V 2.44; A 2.25; N 2.07; G 2.95; I 2.33; F 2.68; K 3.08; W 1.8; P 3.01
R6: L 2.65; Q 2.76; F 2.67; C 3.24; A 4.14; M 2.88; Y 2.78; N 3; K 3.18; E 3.56; G 3.38; I 1.65; D 3.98; T 3.54; H 2.98; W 2.09
R8: H 3.64; T 3.89; F 2.01; Y 2.86; D 2.85; S 2.97; V 2.65; C 2.76; K 3.56; I 2.66; P 3.25; E 3.98; L 2.79; A 3.81; W 2.72; N 2.82; M 3.17
W13: G 4.82; L 3.86; P 4.38; A 4.19; V 4; T 3.77; M 3.07; K 3.85; E 4.77; N 4.02; Q 4.56; D 4.67; S 4.33; H 3.97; Y 3.29
K7: M 1.7; V 3.02; F 2.74; C 2.19; E 4.03; T 2.69; L 1.97; Y 2.29; I 2.98; Q 3.21; H 3.36; G 2.93
Q2: N 2.37; H 2.68; A 2.75; V 2.79; K 3.05; D 3.66; M 2.21; P 2.84; S 2.55; T 3.25; C 1.97; F 2.58
M10: C 3.29; R 4.01; K 3.7; E 4.23; G 4.16; L 3.56; Q 3.95; A 3.83; I 2.81; V 2.82; T 3.55; D 4.4; F 2.93; S 3.69; N 3.5; H 3.44; Y 2.89
V11: H 3.24; G 3.39; S 2.99; D 2.81; E 4.18; C 2.87; F 2.63; Y 3.14; Q 3.16; W 3.34; M 2.54; T 2.87; P 3.55; L 2.63
S12: M 3.36; A 3.35; D 2.85; R 3.36; L 2.37; Y 2.22; K 2.59; N 3.19; V 2.68; H 2.35; Q 2.33; F 2.16; P 2.59; C 2.36; E 3.92
I3: T 3.88; L 3.07; Y 3.14; F 2.72; V 3.63; A 3.18; D 4.19; H 3.7; K 3.1; S 3.05; E 2.29; C 2.46; P 3.56; Q 3.09; N 3.64; R 2.76; G 3.29
A4: Y 2.8; D 3.67; R 3.59; Q 2.34; S 3.34; K 3.36; V 2.56; P 3.85; I 2.38; H 3.39; L 2.95
E1: T 2.67; Y 2.41; Q 3.2; D 3.35; W 1.69; L 2.53; F 1.42; P 3.16; M 2.41; G 3.27; N 3.06; A 2.18; V 2.55; K 4; R 2.77; C 1.44; I 2.78
E14: I 2.22; A 2.8; Q 2.32; C 2.49; H 2.85; M 2.24; N 3.39; D 2.07; G 2.2; F 1.97; R 2.31; P 2.44; L 2.95

Variants of: B2
Assay: as above
Conditions: c terminus: a fixed tail appended

Protein stability index of substitutions, site by site:
F20: V 3.06; P 3.39; C 4.04; K 2.68
I1: Q 1.48; G 2.84; P 3.96; K 2.65; Y 3.05; F 2.15
S22: N 2.57; Q 2.57; C 2.86; G 3.59; V 2.54; P 3.67
A5: W 2.77; I 3.04; Y 2.88; P 2.54; D 2.51
T8: N 3.16; M 2.49; W 2.58; E 2.67; G 2.63
G14: Q 2.15; P 2.67; M 2.48; E 2.76; T 2.79; I 2.82
L6: A 2.63; Y 3.33; G 2.54; F 2.34; D 3.13; I 3.38; V 3.03
P15: K 1.77; H 2.17; Y 1.75; I 4.59; A 2.41
F9: R 3.28; H 1.51; I 3.79; Q 3.22
L12: F 4.01; Y 2.37; Q 4.09; E 2.51
G23: T 2.53; K 2.05
G17: F 2.74; K 2.22; P 2.78; I 2.98; H 3.56; A 2.41
F19: Q 3.63; L 3.19; E 3.01; R 2.72; Y 4.14; C 2.63; P 2.01; D 3.49
I13: Y 2.89; L 2.64; S 2.8; T 2.77; G 2.48
F16: K 3.11; I 4.33
G18: M 3.05; I 3.04; W 2.32; D 4.39
S3: P 2.89; G 2.49; C 4.47; E 3.44
A21: Y 3.42; Q 3.25; I 3; M 2.69; H 4.77; K 2.22; F 2.83; C 3.33; E 2.24
I4: R 3.04; S 3.51; P 3.8; L 1.57
S7: Y 2.65; P 2.88; M 3.09; V 3
F24: A 2.18; H 3.27; W 3.66; V 3.32; L 3.68; G 4.4; M 2.8; T 3.42; Y 2.52
H2: Q 2.43; M 2.79; G 3.52; C 4.54; S 2.03; I 2.41
A10: V 3.29; F 3.04; M 3.11; T 4.58; I 4.24; P 2.39
S11: V 1.89; Q 3.26; E 3.35; D 2.9; A 2.88; G 2.9
